Test results from patent US20210252159A1, “CONJUGATES OF CARTILAGE-HOMING PEPTIDES” (priority 2018, published 2021).
No end group written: not given here.

What was measured:
[1] = Biodistribution and pharmacokinetics of ^14C-labeled peptides in knee and IVD (QWBA); format: in vivo, athymic nude mice; settings: for levels in knee and IVD compared with peptide(SEQ ID NO: 105): After 24 hours
Experimental: Synthetic peptides were radiolabeled by reductive methylation of the N-terminus with ^14C formaldehyde. 2 mice per time point were injected IV with 12.4 μCi of peptide (approximately 100 nmol or 18 mg/kg) and then euthanized at 0.08, 0.5, 1, 3, 8, 24, 48, 72, or 96 hours, followed by quantitative whole body autoradiography analysis.
To that end, the biodistribution pharmacokinetics of ^14C-labeled peptides ^14C-peptide(SEQ ID NO: 105), ^14C-peptide(SEQ ID NO: 103), and ^14C-peptide(SEQ ID NO: 184) to the knee (FIG. 19A and FIG. 19B) and intraverterbral discs (IVD, FIG. 19C and FIG. 19D) was assessed in mice (FIG. 19). Tissue levels were quantified by whole body autoradiography of peptides that had been radiolabeled by reductive methylation of the N-terminus. ^14C-peptide(SEQ ID NO: 105) and ^14C-peptide(SEQ ID NO: 103) both peaked in knee and IVD around 1-3 hours whereas ^14C-peptide(SEQ ID NO: 184) peaked later at 8 hours. […] All peptides still had observable signal at the last time point of 96 hours. […] As the peptide levels are based on the radiolabel attached to the N-terminus of the peptide, the decrease in signal with time may be due to aminopeptidase activity on the N-terminus of the peptides (which would not be relevant on PDC conjugates, where the drug linker is attached to the N-terminus), due to peptide diffusion back out of the cartilage, or due to general peptide backbone cleavage. For example, higher sustained levels of peptide in the cartilage may be desirable if drug cleavage has a slower pharmacokinetics, and if the peptide-drug conjugate is not saturating peptide binding sites in the cartilage when using repeat dosing. As another example, an earlier tmax in cartilage may be desirable to minimize premature cleavage of a conjugated drug in serum.

[2] = Comparison of joint retention time among radiolabeled peptides (QWBA, knee and IVD); format: in vivo; design: Peptide Signal Retention in Knee / Peptide Signal Retention in IVD: unit not given here; settings: for joint retention: SEQ ID NO: 105 57-60 nmol, SEQ ID NO: 103 130 nmol, SEQ ID NO: 184 150 nmol
Experimental: Frozen carcasses were allowed to off gas hexane overnight at −20° and then embedded in chilled 2% carboxymethylcellulose (Sigma Aldrich) and sectioned sagittally at a thickness of 40 μm on an H/I Bright 8250 Cryostat (Hacker Instruments). Radioactive control guides were drilled into each block to verify even cutting depth along the length of the section. The radioactive guide consisted of ^14C-Glycine (American Radiolabeled Chemicals, “ARC”) at 0.5 uCi/ml in 0.5% BSA (Sigma Aldrich) in PBS. Sections were collected onto 4-inch wide tape (Scotch 821, ULINE) at 2-4 depths to sample approximately 30 tissues with particular focus on the knees and spine. Collected sections were freeze dried in the cryostat for 48-72 hours then mounted on sturdy paper and covered with a single protective layer of cellophane (Reynolds Food Service Film). Mounted sections were exposed to phosphor imager plates (Raytest) along with a radioactive standard Curve (1465-PL, ARC) for 7-days, scanned on a Raytest CR-35 at “25 μm sensitive” setting.
Quantification of the radioactivity detected in WBA samples was evaluated by measuring the pixel density/mm^2 (“SI”: Signal Intensity/Area−background) using AIDA Image Analyzer v 5.1 Whole Body Autoradiography Professional software (Raytest). Regions of interest (ROIs) were drawn manually around the entire visible tissue, comparing the sectioned sample to the autoradiogram. For quantification, all visible knee or IVD (intervertebral disc) tissues for one rodent across all collected sections were measured and averaged together to generate one knee or IVD value per animal. Typically were sampled 1-2 knee values (from femoral and tibial cartilage) per 1-2 sections per animal and 3-10 IVD per 1-2 sections per animal. To collect quantified values for other tissues, ROIs were drawn around blood in the heart ventricle, spinotrapezius muscle, the liver, or the kidney (including cortex and medulla) in all sections in which the tissue was observed and then averaged to yield one value per tissue per animal.
Data were presented as nmol of compound per gram of tissue. The commercial standard strips co-exposed with each WBA sample set were calibrated so that a known amount of radioactive counts per minute (CPM) per gram of tissue, determined by liquid scintillation counting (LSC), corresponded to the measured WBA SI at 11 standard strip concentration data points. The regression line of the log 10 transformed WBA signal intensity plotted against the log 10 transformed CPM/g gave a linear range of 1×10^5 to 7.5×10^7 WBA SI, corresponding to 6.3 nCi/g to 3.3 μCi/g. The log 10 concentration of radioactivity in each tissue (CPM/g) was interpolated from the standard curve, converted to linear values, and translated from CPM/g to uCi/g by interpolation against an LSC CPM to μCi standard curve. Uptake (nmol of compound/g of tissue) was determined by dividing the μCi/g tissue by the μCi/nmol specific activity of the peptide.
Peptide(SEQ ID NO: 105) was dosed at 57-60 nmol. Peptide(SEQ ID NO: 103) was dosed at 130 nmol. Peptide(SEQ ID NO: 184) was dosed at 150 nmol. […] It should be noted that detection of retention is based on an assay that detects radiolabeling of the N-terminus of each of the tested conjugates, thus decrease in signal over time may be due not only to peptide diffusion back out of the cartilage but also aminopeptidase-mediated removal of N-terminal amino acid, general peptide cleavage, or other mechanisms. Results as measured by QWBA methods described herein are shown in Tables 6 and 7 below and FIG. 11.

Sequence | levels in knee and IVD compared with peptide(SEQ ID NO: 105) [1] | Peptide Signal Retention in IVD ([2]; 0.08 Hours) | Peptide Signal Retention in Knee ([2]; 0.08 Hours) | Peptide Signal Retention in IVD ([2]; 0.5 Hours) | Peptide Signal Retention in Knee ([2]; 0.5 Hours) | Peptide Signal Retention in IVD ([2]; 1 Hours) | Peptide Signal Retention in Knee ([2]; 1 Hours) | Peptide Signal Retention in IVD ([2]; 3 Hours) | Peptide Signal Retention in Knee ([2]; 3 Hours) | Peptide Signal Retention in IVD ([2]; 8 Hours) | Peptide Signal Retention in Knee ([2]; 8 Hours) | Peptide Signal Retention in IVD ([2]; 24 Hours) | Peptide Signal Retention in Knee ([2]; 24 Hours) | Peptide Signal Retention in IVD ([2]; 48 Hours) | Peptide Signal Retention in Knee ([2]; 48 Hours) | joint retention [2] | also measured
GSGDCLPHLRRCRENNDCCSRRCRRRGANPERRCR (not fully specified (N-terminus, bridges); cysteine pairing not given here) [peptide(SEQ ID NO: 184), cartilage-homing cystine-dense peptide; biodistribution with form ^14C-methylated on the N-terminus] | substantially higher levels | 53.02 | 96.94 | 49.70 | 69.85 | 100.00 | 100.00 | 238.11 | 158.43 | 119.97 | 111.32 | 64.00 | 57.81 | 49.99 | 50.44 | Longer joint retention | time of peak in knee and IVD ([1]; mice, approximately 100 nmol IV, QWBA): 8 h; Peptide Signal Retention in IVD ([2]; 72 Hours): 52.20; Peptide Signal Retention in Knee ([2]; 72 Hours): 28.30; Peptide Signal Retention in IVD ([2]; 96 Hours): 36.54; Peptide Signal Retention in Knee ([2]; 96 Hours): 11.84
GSSERDCIRHLQRCRENRDCCSRRCSRRGTNPERRCR (not fully specified (N-terminus, bridges); cysteine pairing not given here) [peptide(SEQ ID NO: 103), cartilage-homing cystine-dense peptide; biodistribution with form ^14C-methylated on the N-terminus] | substantially higher levels | 59.15 | 79.20 | 76.62 | 110.57 | 100.00 | 100.00 | 113.18 | 103.00 | 107.52 | 98.94 | 50.75 | 44.60 | 34.86 | 29.30 | Longer joint retention | 
